Reference: US20030212001A1 (THERATECHNOLOGIES, published 2003)

Biological target: R-14 protein (as present in the eye of newborn pigs)
Experiment: cell-based or functional assay

| IC50, dose response on basal intraocular pressure (IOP) of piglet | Binder |
| --- | --- |
| 342 nM | IFDSTECW [peptide 1405] |
| 86.4 nM | HIICSPLR [peptide 1402] |
